Assay results taken from patent publication US20090280138A1 (OXFORD BIOMEDICA UK, published 2009).

Assays:
[1] = target: T1, MHC class I molecule HLA-A*0301 (iTopia plate-bound monomer) (biotin (bound to streptavidin-coated plate)); assay: iTopia off-rate assay, 37 C; fit R^2 0.77
T1 construct: also called A3
Method in brief: (§1)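 Each t1/2 is derived by fitting a single-phase exponential decay, with the plateau set to zero, to peptide dissociation from plate-coated MHC. The same fit supplies r² for every peptide. Nonamers are measured in duplicate using an ELISA reader.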

[2] = target: T2, MHC class I molecule HLA-A*0201 (iTopia plate-bound monomer) (biotin (bound to streptavidin-coated plate)); assay: iTopia off-rate assay, 37 C; fit R^2 0
T2 construct: also called A2
Experimental: (§2) The 9 mers were tested for Peptide Binding, Off Rate and Affinity using iTopia Epitope Discovery System in accordance with the manufacturer's instructions. Briefly, 96 well microtitre plates coated with MHC molecules representing different MHC alleles are used to identify candidate peptides. […] Determinations are performed in duplicate using an ELISA plate reader and included allele specific positive controls.
(§3) A one-phase exponential decay curve, with a plateau given equal to 0, was generated using GraphPad Prism® software, which calculated the t1/2 and goodness-of-fit, as measured by r², for each peptide.

[3] = target: T2, MHC class I molecule HLA-A*0201 (iTopia …); assay: iTopia off-rate assay, 37 C; fit R^2 0.83
Experimental: as §2, §3

[4] = target: T3, MHC class I molecule HLA-B*0702 (iTopia plate-bound monomer) (biotin (bound to streptavidin-coated plate)); assay: iTopia off-rate assay, 37 C; fit R^2 0.04
T3 construct: Commercial iTopia system; also called B7
Experimental: as §2, §3

[5] = target: T1, MHC class I molecule HLA-A*0301 (iTopia …); assay: iTopia off-rate assay, 37 C; fit R^2 0.87
Method in brief: as §1

Row | Binder | t½ half life [1] [h] | t½ half life [2] [h] | t½ half life [3] [h] | t½ half life [4] [h] | t½ half life [5] [h]
1 | LLVLYLNRK (also called Peptide No 186) [5T4 9-mer peptide 186 LLVLYLNRK] | 3.2 | 21.4 | – | – | –
2 | VLYLNRKGI [5T4 9-mer peptide 187 VLYLNRKGI] | – | – | 0.6 | 2.9 | 1.4
